Experimental data as given in the supplement of paper PMC7125110.
± gives the standard error. Variants at the floor of the assay were thinned out.

B1: glmS ribozyme (parent)
chain: AUAAAAGCGCCAGAACUACAGAAAUGUAGUUGACGAGGAGGAGGUUUAUCGAAUUUUCGGCGGAUGCCUCCAAA

Variants of: B1
Test: self-cleavage kobs at 10000 uM GlcN6P; higher = faster cleavage; RNA array
Settings: with glucosamine-6-phosphate
Outline: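 Ribozyme variants carrying barcodes were transcribed in situ on sequenced MiSeq chips by E. coli RNA polymerase and tracked at 37 °C with a hybridised Cy3 probe. They were exposed to 40 μM to 10 mM glucosamine-6-phosphate in HEPES/KCl/Mg(OAc)2 buffer. kobs came from exponential decay fits of normalised per-tile medians, and kcat and KM from weighted Michaelis–Menten fits.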

First: AUAAAAGCGCCAGAACUACAGAAAUGUAGUUUACGAGGAGGAGGGCUAUCGAAUUUUCGGCGGAUGACUCCAAA [G32U U45G U46C C67A]
Second: AUAAAAGCGCCAGAACUACAGAAAUGUAGGUGACGAGGAGGAGGAUUAUCGAAUUUUCGGCGGAUGCCUCGAAA [U30G U45A C71G]
The “self-cleavage kobs at 10000 uM GlcN6P” value of the first is 4.4-fold lower: 7.22e-05 ± 2e-05 s⁻¹ for the first, 0.000315 ± 5.9e-05 s⁻¹ for the second.

First: AUAAAAGCGCCAGAACUACAGAAAUGUAGUUGUCGAGGAGGAGGAUUAUCGAAUCUUCGGCGGAUGCCUCUAAA [A33U U45A U55C C71U]
Second: AUAAAAGCGCCAGAACUACAGAAAUGUAGCUGACGAGGAGGAGGUUUAUCGAAUCUUCGGCGGAUGCCUUCAAA [U30C U55C C70U]
The “self-cleavage kobs at 10000 uM GlcN6P” value of the first is lower: < 1e-05 s⁻¹ for the first, 8.64e-05 ± 1.7e-05 s⁻¹ for the second.

AUAAAAGCGCCAGAACUACAGAAAUGUAGGUGACGGGGAUGAGGUUUAUCGAAUUUUCGGCGGAUGCAUCCAAA [U30G A36G G40U C68A] and AUAAAAGCGCCAGAACUACAGAAAUGUAGUUGAAGAGGAGGAGGUUUAUCGAAUUUUCGGCGGGUGCCCCCAAA [C34A A64G U69C] cannot be ordered by “self-cleavage kobs at 10000 uM GlcN6P” value: < 1e-05 s⁻¹ for the first, < 1e-05 s⁻¹ for the second.

First: AUAAAAGCGCCAGAACUACAGAAAUGUAGUUGAUGAGUAUGAGGUUUAUCGAAUUUUCGGCGGAUGCCUCCAAA [C34U G38U G40U]
Second: AUAAAAGCGCCAGAACUACAGAAAUGUAGUCAACGAGGAGGAGGUUGAUCGAAUUUUCGGCGGAUGACUCCAAA [U31C G32A U47G C67A]
The “self-cleavage kobs at 10000 uM GlcN6P” value of the first is lower: < 1e-05 s⁻¹ for the first, 6.62e-05 ± 1.4e-05 s⁻¹ for the second.

Compared with AUAAAAGCGCCAGAACUACAGAAAUGUAGUUCACGAGCAGGAGGUUUAUCGAAUUUUCGUCGGAUGGCUCCAAA [G32C G38C G60U C67G], AUAAAAGCGCCAGAACUACAGAAAUGUAGUUUACGAGGAUGAGGUUUAUCGAAUUUUCGGCGGAUGCCUUCAAA [G32U G40U C70U] is higher in “self-cleavage kobs at 10000 uM GlcN6P” value: < 1e-05 s⁻¹ for the first, 5.9e-05 ± 1.3e-05 s⁻¹ for the second.

Compared with AUAAAAGCGCCAGAACUACAGAAAUGUAGUCGACGAGGAGGAGGUUCAUCGAAUUUUCGGCGGAUGCCUUCAAA [U31C U47C C70U], AUAAAAGCGCCAGAACUACAGAAAUGUAGGUGACGAGGAGGAGGUUUAACGAAUUUUCGGCGGAUGCAUCCAAA [U30G U49A C68A] is lower in “self-cleavage kobs at 10000 uM GlcN6P” value: 0.000673 ± 0.00014 s⁻¹ for the first, < 1e-05 s⁻¹ for the second.

AUAAAAGCGCCAGAACUACAGAAAUGUAGGUGACGAGGAGGAGGUUUAUCGAAUUUUCGGCAGAUGACUCCAAA [U30G G62A C67A] and AUAAAAGCGCCAGAACUACAGAAAUGUAGUUGUCGAGGAGUAGGUUUAACGUAUUUUCGGCGGAUGCCACCAAA [A33U G41U U49A A52U U69A] cannot be ordered by “self-cleavage kobs at 10000 uM GlcN6P” value: < 1e-05 s⁻¹ for the first, < 1e-05 s⁻¹ for the second.

Going from AUAAAAGCGCCAGAACUACAGAAAUGUAGUUGUCCAGGAGGAGGUUUAUCGAAUUUUCGGCUGAUGUCUCCAAA [A33U G35C G62U C67U] to AUAAAAGCGCCAGAACUACAGAAAUGUAGUGGACGAGGAUGAGGUUUAUCGAAUUUUCGGCGGAUGACUCCAAA [U31G G40U C67A], the “self-cleavage kobs at 10000 uM GlcN6P” value rises from < 1e-05 s⁻¹ to 6.16e-05 ± 1.3e-05 s⁻¹.

AUAAAAGCGCCAGAACUACAGAAAUGUAGUUGUCGAGGAAGAGGUUUAUCGAAUUUUCGGCGGAUGCCUCCAAA [A33U G40A] and AUAAAAGCGCCAGAACUACAGAAAUGUAGUAGACGUGGAGGAGGUUGAUCGAAUUUUCGGCGGAUGCCUGCAAA [U31A A36U U47G C70G] are within error of each other in “self-cleavage kobs at 10000 uM GlcN6P” value: 4.3e-05 ± 5.8e-06 s⁻¹ for the first, 5.95e-05 ± 1.5e-05 s⁻¹ for the second.

AUAAAAGCGCCAGAACUACAGAAAUGUAGGGGACGAGGAGGAGGUCUAUCGAAUUUUCGGCGGAGGCCUCCAAA [U30G U31G U46C U65G] and AUAAAAGCGCCAGAACUACAGAAAUGUAGUUAACGAGGAGGAGGUUUAUCGGAUUUUCGGCGGAUGCCUACAAA [G32A A52G C70A] are within error of each other in “self-cleavage kobs at 10000 uM GlcN6P” value: 5.94e-05 ± 2.6e-05 s⁻¹ for the first, 5.69e-05 ± 2.3e-05 s⁻¹ for the second.

First: AUAAAAGCGCCAGAACUACAGAAAUGUAGUUAACGAGGAGGAGGUUUAUCGAAUUUUCGGCGGUUGCUUCCAAA [G32A A64U C68U]
Second: AUAAAAGCGCCAGAACUACAGAAAUGUAGUAGACGAGGAGGAGGUUUAUCGAAUUUUCGGCGGAUCCCUCCAAA [U31A G66C]
The “self-cleavage kobs at 10000 uM GlcN6P” value of the first is lower: < 1e-05 s⁻¹ for the first, 0.000307 ± 9.3e-05 s⁻¹ for the second.

Going from AUAAAAGCGCCAGAACUACAGAAAUGUAGGUGGCGAGGAGGAGGUUUAUCGAAUUUUCGGCGGAUGCCUCGAAA [U30G A33G C71G] to AUAAAAGCGCCAGAACUACAGAAAUGUAGUUGCCGAGGAGGAGGUCUAUCGAAUUUUCGGCGGAUGCCUCCAAA [A33C U46C], the “self-cleavage kobs at 10000 uM GlcN6P” value rises from < 1e-05 s⁻¹ to 4.16e-05 ± 1.7e-05 s⁻¹.

Compared with AUAAAAGCGCCAGAACUACAGAAAUGUAGUGGACGAGGAGGAGGUUCAUCGAAAUUUCGGCGGAUGCCUCCAAA [U31G U47C U54A], AUAAAAGCGCCAGAACUACAGAAAUGUAGUUGCCAAGGAGGAGGUGUAUUGAAUUGUCGGCGGAUGCCUCAAAA [A33C G35A U46G C50U U56G C71A] is lower in “self-cleavage kobs at 10000 uM GlcN6P” value: 0.00049 ± 8.9e-05 s⁻¹ for the first, < 1e-05 s⁻¹ for the second.

Going from AUAAAAGCGCCAGAACUACAGAAAUGUAGUUGAAGCUGAGGAGGUUUAUCGAAUUUUCGGCGGAUGCCGCCAAA [C34A A36C G37U U69G] to AUAAAAGCGCCAGAACUACAGAAAUGUAGUUUACGAGGAGGAGGUUUAUCGAAUUUGCGGCGGAUGCCUCCAAA [G32U U57G], the “self-cleavage kobs at 10000 uM GlcN6P” value falls from 0.000153 ± 3.2e-05 s⁻¹ to 5.4e-05 ± 1.4e-05 s⁻¹ (2.8-fold).

AUAAAAGCGCCAGAACUACAGAAAUGUAGUUGAGGAGGAGGAGGUUUAUCGAAUUUUCGGCGGCUGACUCCAAA [C34G A64C C67A] and AUAAAAGCGCCAGAACUACAGAAAUGUAGUUGCCGAGUAGGAGGUUUAUCGAAUUUUCGGCGGAUGCUUCCAAA [A33C G38U C68U] cannot be ordered by “self-cleavage kobs at 10000 uM GlcN6P” value: < 1e-05 s⁻¹ for the first, < 1e-05 s⁻¹ for the second.

Going from AUAAAAGCGCCAGAACUACAGAAAUGUAGUUUACGAGGAGGAGGUUUAUCGAAUUUACGGCGGAUGCGUCCAAA [G32U U57A C68G] to AUAAAAGCGCCAGAACUACAGAAAUGUAGUGGACGAGCACGAGGUUUAUCGAAUUUUCGCCGGAUGCCACAAAA [U31G G38C G40C G60C U69A C71A], the “self-cleavage kobs at 10000 uM GlcN6P” value falls from 6.42e-05 ± 2.1e-05 s⁻¹ to < 1e-05 s⁻¹.

Going from AUAAAAGCGCCAGAACUACAGAAAUGUAGUAGACGAGGAGGAGGUUUAUCUAAUUUUCGGCGGAUGCAUCCAAA [U31A G51U C68A] to AUAAAAGCGCCAGAACUACAGAAAUGUAGUCGACGAGGAGGAGGUUUAUGGAAUUUUCGGCGAAUGCCUCCAAA [U31C C50G G63A], the “self-cleavage kobs at 10000 uM GlcN6P” value rises from < 1e-05 s⁻¹ to 3.51e-05 ± 1.5e-05 s⁻¹.

First: AUAAAAGCGCCAGAACUACAGAAAUGUAGUUGCCGAGGAGGAGGUGUAUCGUAUUUUCGGCGGAUGCCUCCAAA [A33C U46G A52U]
Second: AUAAAAGCGCCAGAACUACAGAAAUGUAGUGGACGAGGAGGACGGUUAUCGAAUUUUCGGCGGAUGCCUCCAAA [U31G G43C U45G]
The “self-cleavage kobs at 10000 uM GlcN6P” value of the first is lower: < 1e-05 s⁻¹ for the first, 0.000273 ± 8.2e-05 s⁻¹ for the second.

AUAAAAGCGCCAGAACUACAGAAAUGUAGGUGACGAGGAGGAGGUUCAUCGAAUUUUCGGCGGAUGCUUCCAAA [U30G U47C C68U] was tested, and the “self-cleavage kobs at 10000 uM GlcN6P” value was 0.000171 ± 3.3e-05 s⁻¹.
